According to IntAct's records for PubMed 26948053:

B1: N-terminal EF-hand calcium-binding protein 3 (Homo sapiens), Q96P71-2 (parent)
chain: MACAGLLTVCLLRPPAPQPQPQTPRHPQLAPDPGPAGHTLFQDVFRRADKNDDGKLSFEEFQNYFADGVLSLGELQELFSGIDGHLTDNLETEKLCDYFSEHLGVYRPVLAALESLNRAVLAAMDATKLEYERASKVDQFVTRFLLRETVSQLQALQSSLEGASDTLEAQAHGWRSDAESVEAQSRLCGSRRAGRRALRSVSRSSTWSPGSSDTGRSSEAEMQWRLQVNRLQELIDQLECKAPRLEPLREEDLAKGPDLHILMAQRQVQVAEEGLQDFHRALRCYVDFTGAQSHCLHVSAQKMLDGASFTLYEFWQDEASWRRHQQSPGSKAFQRILIDHLRAPDTLTTVFFPASWWIMNNN
partner: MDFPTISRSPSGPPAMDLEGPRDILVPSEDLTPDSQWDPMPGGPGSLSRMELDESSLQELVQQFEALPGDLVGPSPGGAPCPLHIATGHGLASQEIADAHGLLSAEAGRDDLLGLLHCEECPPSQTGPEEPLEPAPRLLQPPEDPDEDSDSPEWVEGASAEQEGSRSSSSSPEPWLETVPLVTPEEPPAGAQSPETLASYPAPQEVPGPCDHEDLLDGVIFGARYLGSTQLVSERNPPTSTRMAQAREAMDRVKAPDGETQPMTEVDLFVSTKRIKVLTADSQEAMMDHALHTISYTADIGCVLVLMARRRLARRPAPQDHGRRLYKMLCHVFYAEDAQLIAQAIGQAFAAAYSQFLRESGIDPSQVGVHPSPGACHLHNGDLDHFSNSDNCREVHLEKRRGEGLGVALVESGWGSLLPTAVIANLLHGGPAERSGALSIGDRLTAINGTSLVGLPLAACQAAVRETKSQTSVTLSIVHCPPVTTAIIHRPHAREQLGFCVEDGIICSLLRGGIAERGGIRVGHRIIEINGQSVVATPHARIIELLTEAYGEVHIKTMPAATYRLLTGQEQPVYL

Variants of: B1
Conditions: with apba3_human APBA3, O96018

effect of a mutation on the interaction | Variant
with no effect | MACAGLLTVCLLRPPAPQPQPQTPRHPQLAPDPGPAGHTLFQDVFRRADKNDDGKLSFEEFQNYFADGVLSLGELQELFSGIDGHLTDNLETEKLCDYFSEHLGVYRPVLAALESLNRAVLAAMDATKLEYERASKVDQFVTRFLLRETVSQLQALQSSLEGASDTLEAQAHGWRSDAESVEAQSRLCGSRRAGRRALRSVSRSSTWSPGSSDTGRSSEAEMQWRLQVNRLQELIDQLECKAPRLEPLREEDLAKGPDLHILMAQRQVQVAEEGLQDFHRALRCYVDFTGAQSHCLHVSAQKMLDGASFTLYEFWQDEASWRRAQQSPGSKAFQRILIDHLRAPDTLTTVFFPASWWIMNNN [H324A]
